# Results as given in patent publication US20160215297.
# Tests used:
# Assay in all cases: cell_activity
# [1] = tested on: Il2rg ZFN left (synthetic construct); conditions: pair with ZFN right; mRNA electroporated into rat zygotes, 3/4 offspring; Surveyor assay positive in rat fibroblasts; 37% and 73% in Tests 5-1 and 5-2
# [2] = tested on: Il2rg ZFN right (synthetic construct); conditions: pair with ZFN left; mRNA electroporated into rat zygotes, 3/4 offspring; Surveyor assay positive in rat fibroblasts; 37% and 73% in Tests 5-1 and 5-2
# [3] = tested on: Il2rg TALEN right (synthetic construct); conditions: pair with TALEN left; mRNA electroporated into rat zygotes, 3/17 offspring; Surveyor assay positive in rat fibroblasts
# [4] = tested on: Il2rg TALEN left (synthetic construct); conditions: pair with TALEN right; mRNA electroporated into rat zygotes, 3/17 offspring; Surveyor assay positive in rat fibroblasts
sequence,measurement,setting,value
GCATAGTGAGGTTGG (double strand) [Il2rg ZFN left binding site],activity (% mutant offspring),[1],75
GGTATGAGAAGGGGG (double strand) [Il2rg ZFN right binding site],activity (% mutant offspring),[2],75
TCCAAGTGCAATTCATATACT (double strand) [Il2rg TALEN right binding site],activity (% mutant offspring),[3],18
TCCCAGAGGTTCAATGCT (double strand) [Il2rg TALEN left binding site],activity (% mutant offspring),[4],18
